Laboratory results from US20180044434A1 (PUBLIC UNIVERSITY CORPORATION YOKOHAMA CITY UNIVERSITY, published 2018).
Numbering of substitutions follows the chain as printed.

Legend:
[1] = target: T1, Ala mutant of TA0096, SEQ ID NO: 34; experiment: ELISA, alanine scan (position 347)
T1 peptide: EENMDDQAMQDEMEIGY
Method: (§1) The epitope of each of A11 etc. was identified by alanine scan. Specifically, the following procedures (i) to (iii) were carried out. (i) Each amino acid residue of the antigen sequence (SEQ ID NO: 1) was replaced by another amino acid one by one, and 17 different Ala mutants (SEQ ID Nos: 27 to 43) were synthesized. (ii) The reactivity of each of the Ala mutants toward a test antibody was evaluated (ELISA).
The “96 pAb” designated in the table refers to antiserum as obtained by immunizing a chicken with TA0096 (SEQ ID NO: 1). The 96 pAb, which is an anti-PAD4 polyclonal antibody, can substantially keep the affinity toward PAD4 even if any of single amino acids of PAD4 is replaced.

[2] = target: T2, full-length recombinant mouse PAD4 (mouse, UniProt Q9Z183 1-666); experiment: ELISA, coated mouse PAD4; antibody 0.0625 ug/mL
T2 construct: mature; Full-length recombinant
T2 sequence (Q9Z183 whole entry): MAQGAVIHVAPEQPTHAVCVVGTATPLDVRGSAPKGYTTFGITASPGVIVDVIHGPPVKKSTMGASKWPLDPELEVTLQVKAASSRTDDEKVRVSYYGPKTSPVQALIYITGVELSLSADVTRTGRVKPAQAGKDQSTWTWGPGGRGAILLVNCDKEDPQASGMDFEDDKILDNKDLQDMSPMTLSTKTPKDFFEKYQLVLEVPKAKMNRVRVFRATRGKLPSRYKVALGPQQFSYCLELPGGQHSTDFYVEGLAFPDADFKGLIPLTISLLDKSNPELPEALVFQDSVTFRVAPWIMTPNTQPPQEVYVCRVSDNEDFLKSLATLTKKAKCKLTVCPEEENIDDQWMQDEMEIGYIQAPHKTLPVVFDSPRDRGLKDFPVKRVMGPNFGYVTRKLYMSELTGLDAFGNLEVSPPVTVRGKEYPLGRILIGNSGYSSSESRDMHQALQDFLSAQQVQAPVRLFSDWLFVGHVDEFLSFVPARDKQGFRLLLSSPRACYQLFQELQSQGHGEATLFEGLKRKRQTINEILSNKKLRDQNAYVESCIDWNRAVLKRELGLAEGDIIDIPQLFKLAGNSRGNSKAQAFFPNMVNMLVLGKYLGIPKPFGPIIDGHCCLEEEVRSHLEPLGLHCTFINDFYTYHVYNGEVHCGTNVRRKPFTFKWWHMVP

[3] = target: T3, full-length recombinant human PAD4 (human, UniProt Q9UM07 1-663); experiment: ELISA, coated human PAD4; antibody 0.0625 ug/mL
T3 construct: Full-length recombinant; also called peptidylarginine deiminase 4
T3 sequence (Q9UM07 whole entry): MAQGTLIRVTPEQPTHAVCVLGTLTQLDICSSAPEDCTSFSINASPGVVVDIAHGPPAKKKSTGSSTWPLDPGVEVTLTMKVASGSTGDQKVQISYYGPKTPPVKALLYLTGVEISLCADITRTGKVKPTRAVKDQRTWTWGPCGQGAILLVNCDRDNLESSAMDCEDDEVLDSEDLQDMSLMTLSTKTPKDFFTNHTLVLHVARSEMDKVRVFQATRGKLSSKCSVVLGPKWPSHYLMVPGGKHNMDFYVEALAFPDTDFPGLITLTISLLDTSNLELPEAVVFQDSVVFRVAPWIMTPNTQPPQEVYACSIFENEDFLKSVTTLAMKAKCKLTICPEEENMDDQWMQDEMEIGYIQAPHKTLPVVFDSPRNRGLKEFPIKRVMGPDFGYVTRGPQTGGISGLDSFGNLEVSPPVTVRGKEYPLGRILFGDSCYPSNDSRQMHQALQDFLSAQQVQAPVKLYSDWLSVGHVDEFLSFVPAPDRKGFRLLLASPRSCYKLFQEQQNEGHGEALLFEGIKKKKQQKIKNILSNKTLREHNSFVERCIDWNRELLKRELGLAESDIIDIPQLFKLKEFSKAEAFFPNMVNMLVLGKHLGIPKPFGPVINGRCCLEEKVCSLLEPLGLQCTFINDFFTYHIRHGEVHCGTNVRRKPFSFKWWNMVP

[4] = target: T2, full-length recombinant mouse PAD4; experiment: ELISA, coated mouse PAD4; antibody 0.0002441 ug/mL
[5] = target: T2, full-length recombinant mouse PAD4; experiment: ELISA, coated mouse PAD4; antibody 1 ug/mL
[6] = target: T3, full-length recombinant human PAD4; experiment: ELISA, coated human PAD4; antibody 0.0002441 ug/mL
[7] = target: T3, full-length recombinant human PAD4; experiment: ELISA, coated human PAD4; antibody 0.015625 ug/mL
[8] = target: T2, full-length recombinant mouse PAD4; experiment: ELISA, coated mouse PAD4; antibody 0.0009766 ug/mL
[9] = target: T4, Ala mutant having 3-amino acid substitution, SEQ ID NO: 45; experiment: ELISA, 3-amino acid Ala mutants
T4 peptide: EENAAAQWMQDEMEIGY
Method: as §1
Note that, as additional experiments, 6 different Ala mutants having 3-amino acid substitution (SEQ ID NOs: 44 to 49) were likewise examined in the experiments.

[10] = target: T5, Ala mutant having 3-amino acid substitution, SEQ ID NO: 47; experiment: ELISA, coated peptide
T5 peptide: EENMDDQWMAAAMEIGY

[11] = target: T6, TA0096 (peptide antigen corresponding to positions 340 to 356 of PAD4); experiment: ELISA, coated peptide
T6 peptide: EENMDDQWMQDEMEIGY

[12] = target: T1, Ala mutant of TA0096, SEQ ID NO: 34; experiment: ELISA, coated peptide
[13] = target: T7, Ala mutant of TA0096, SEQ ID NO: 35; experiment: ELISA, coated peptide
T7 peptide: EENMDDQWAQDEMEIGY

[14] = target: T8, Ala mutant of TA0096, SEQ ID NO: 33; experiment: ELISA, coated peptide
T8 peptide: EENMDDAWMQDEMEIGY

[15] = target: T9, Ala mutant of TA0096, SEQ ID NO: 36; experiment: ELISA, coated peptide
T9 peptide: EENMDDQWMADEMEIGY

[16] = target: T10, Ala mutant of TA0096, SEQ ID NO: 38; experiment: ELISA, coated peptide
T10 peptide: EENMDDQWMQDAMEIGY

[17] = target: T11, Ala mutant of TA0096, SEQ ID NO: 29; experiment: ELISA, coated peptide
T11 peptide: EEAMDDQWMQDEMEIGY

[18] = target: T12, Ala mutant having 3-amino acid substitution, SEQ ID NO: 48; experiment: ELISA, coated peptide
T12 peptide: EENMDDQWMQDEAAAGY

[19] = target: T13, Ala mutant of TA0096, SEQ ID NO: 40; experiment: ELISA, coated peptide
T13 peptide: EENMDDQWMQDEMAIGY

[20] = target: T14, Ala mutant of TA0096, SEQ ID NO: 42; experiment: ELISA, coated peptide
T14 peptide: EENMDDQWMQDEMEIAY

[21] = target: T4, Ala mutant having 3-amino acid …; experiment: ELISA, coated peptide
[22] = target: T15, Ala mutant having 3-amino acid substitution, SEQ ID NO: 49; experiment: ELISA, coated peptide
T15 peptide: EENMDDQWMQDEMEIAA

[23] = target: T16, Ala mutant having 3-amino acid substitution, SEQ ID NO: 44; experiment: ELISA, coated peptide
T16 peptide: AAAMDDQWMQDEMEIGY

[24] = target: T17, Ala mutant of TA0096, SEQ ID NO: 39; experiment: ELISA, coated peptide
T17 peptide: EENMDDQWMQDEAEIGY

[25] = target: T18, Ala mutant of TA0096, SEQ ID NO: 41; experiment: ELISA, coated peptide
T18 peptide: EENMDDQWMQDEMEAGY

[26] = target: T19, Ala mutant of TA0096, SEQ ID NO: 28; experiment: ELISA, coated peptide
T19 peptide: EANMDDQWMQDEMEIGY

[27] = target: T20, Ala mutant of TA0096, SEQ ID NO: 37; experiment: ELISA, coated peptide
T20 peptide: EENMDDQWMQAEMEIGY

[28] = target: T21, Ala mutant of TA0096, SEQ ID NO: 27; experiment: ELISA, coated peptide
T21 peptide: AENMDDQWMQDEMEIGY

[29] = target: T22, Ala mutant of TA0096, SEQ ID NO: 31; experiment: ELISA, coated peptide
T22 peptide: EENMADQWMQDEMEIGY

[30] = target: T3, full-length recombinant human PAD4; experiment: ELISA, coated human PAD4; antibody 6.104E-05 ug/mL

B1: A11 (antibody, V domains shown)
VH: AVTLDESGGGLQTPGGALSLVCKASGFDFSSYGMGWMRQAPGKGLEYVAAIRNDGSWTGYGAAVKGHATISRDNGQSTVRLQLNNLRAEDTGTYYCAKTTGSRGGSIDAWGHGTEVIVS
VL: ASTQPSSVSANLGGTVEITCSGGGRYYYGWYQQKSPGSAPVTVIYANDKRPSDIPSRFSGSKSGSTGTLTITGVQAEDEAVYFCGSAETSSYVFGAGTTLTVL
notes: Chicken variable regions in a mouse chimeric antibody (IgG1); also called anti-PAD4 antibody A11
binding result [1]: no binding
OD 490/630 nm [2]: 2.24
OD 490/630 nm [3]: 2.15
OD 490/630 nm [4]: 0.152
OD 490/630 nm [5]: 2.24
OD 490/630 nm [6]: 0.206
OD 490/630 nm [7]: 2.08
OD 490/630 nm [8]: 0.386
binding result [9]: no binding
OD 490/630 nm [10]: 1.25
OD 490/630 nm [11]: 1.81
OD 490/630 nm [12]: 0.021
OD 490/630 nm [13]: 0.023
OD 490/630 nm [14]: 2.09
OD 490/630 nm [15]: 1.91
OD 490/630 nm [16]: 1.89
OD 490/630 nm [17]: 2.05
OD 490/630 nm [18]: 1.87
OD 490/630 nm [19]: 1.85
OD 490/630 nm [20]: 1.88
OD 490/630 nm [21]: 0.039
OD 490/630 nm [22]: 1.89
OD 490/630 nm [23]: 1.98
OD 490/630 nm [24]: 1.89
OD 490/630 nm [25]: 1.85
OD 490/630 nm [26]: 2
OD 490/630 nm [27]: 1.8
OD 490/630 nm [28]: 1.95
OD 490/630 nm [29]: 1.67
OD 490/630 nm [30]: 0.063

B2: G9 (antibody, V domains shown)
VH: B1 VH with D28T, S31T, G33A, H67R, S71L, N84S, T99Y, R103S, D108G
VL: B1 VL with S2V, S6A
notes: Chicken variable regions in a mouse chimeric antibody (IgG1); also called anti-PAD4 antibody G9
binding result [1]: no binding
OD 490/630 nm [2]: 2.24
OD 490/630 nm [3]: 2.11
OD 490/630 nm [4]: 0.181
OD 490/630 nm [5]: 2.3
OD 490/630 nm [6]: 0.187
OD 490/630 nm [7]: 2.07
OD 490/630 nm [8]: 0.542
binding result [9]: no binding
OD 490/630 nm [10]: 1.85
OD 490/630 nm [11]: 1.85
OD 490/630 nm [12]: 0.038
OD 490/630 nm [13]: 0.253
OD 490/630 nm [14]: 1.98
OD 490/630 nm [15]: 1.87
OD 490/630 nm [16]: 1.96
OD 490/630 nm [17]: 1.94
OD 490/630 nm [18]: 1.89
OD 490/630 nm [19]: 1.88
OD 490/630 nm [20]: 1.85
OD 490/630 nm [21]: 0.019
OD 490/630 nm [22]: 1.92
OD 490/630 nm [23]: 1.92
OD 490/630 nm [24]: 1.87
OD 490/630 nm [25]: 1.89
OD 490/630 nm [26]: 1.96
OD 490/630 nm [27]: 1.88
OD 490/630 nm [28]: 1.93
OD 490/630 nm [29]: 1.48
OD 490/630 nm [30]: 0.082

B3: E9 (antibody, V domains shown)
VH: B1 VH with A17T, A24G, D28T, A62S, H67R, G92A, T100S, R103S, I107V
VL: B1 VL
notes: Chicken variable regions in a mouse chimeric antibody (IgG1); also called anti-PAD4 antibody E9
binding result [1]: no binding
OD 490/630 nm [2]: 2.19
OD 490/630 nm [3]: 2.12
OD 490/630 nm [4]: 0.122
OD 490/630 nm [5]: 2.23
OD 490/630 nm [6]: 0.176
OD 490/630 nm [7]: 2.08
OD 490/630 nm [8]: 0.416
binding result [9]: no binding
OD 490/630 nm [10]: 1.34
OD 490/630 nm [11]: 1.79
OD 490/630 nm [12]: 0.047
OD 490/630 nm [13]: 0.017
OD 490/630 nm [14]: 1.93
OD 490/630 nm [15]: 1.9
OD 490/630 nm [16]: 1.91
OD 490/630 nm [17]: 1.92
OD 490/630 nm [18]: 1.81
OD 490/630 nm [19]: 1.82
OD 490/630 nm [20]: 1.83
OD 490/630 nm [21]: 0.022
OD 490/630 nm [22]: 1.85
OD 490/630 nm [23]: 1.9
OD 490/630 nm [24]: 1.77
OD 490/630 nm [25]: 1.8
OD 490/630 nm [26]: 2
OD 490/630 nm [27]: 1.2
OD 490/630 nm [28]: 1.89
OD 490/630 nm [29]: 1.38
OD 490/630 nm [30]: 0.07
